Blank lines part the entries; values can stand above or below the binder they belong to.
Legend:
[1] = biological target: T1, recombinant CD40 receptor (hu CD40) (human, UniProt P25942 21-193, limits assumed, biotinylated in the MSD assay (site not stated)); test: MSD electrochemiluminescence plate assay: biotinylated CD40 (10 ug/ml) on streptavidin plates, three-fold dilutions of the test article, anti-human Fc detection (Example 4)
T1 construct: also called biotinylated CD40
Procedure: Streptavidin sensor plates were coated with 10 ug/ml of biotinylated CD40 overnight at 4° C. The plates were washed 3× with PBS with 0.05% Tween 20 (PBST). Three-fold dilutions series of the test articles were prepared in PBS with 0.2% bovine serum albumin and 50 ul was applied to the plates for 1 hour at RT with shaking. Plates were washed 3× with PBST and anti-human Fc detection reagent at 2 ug/ml final concentration was applied for 1 hour at RT with shaking. The plates were washed 3× with PBST and 150 ul of 1× read buffer was added to the plates and data was collected on MSD instrument. Data was imported into […] Prism 8 software and analyzed and plotted based on the results three separate experiments.

[2] = biological target: native CD40 receptor on HEK-Blue CD40L reporter cells (UniProt P25942 21-277, limits assumed); test: cell-based or functional assay
native CD40 receptor on HEK-Blue CD40L reporter cells, sequence (P25942 21-277 limits assumed): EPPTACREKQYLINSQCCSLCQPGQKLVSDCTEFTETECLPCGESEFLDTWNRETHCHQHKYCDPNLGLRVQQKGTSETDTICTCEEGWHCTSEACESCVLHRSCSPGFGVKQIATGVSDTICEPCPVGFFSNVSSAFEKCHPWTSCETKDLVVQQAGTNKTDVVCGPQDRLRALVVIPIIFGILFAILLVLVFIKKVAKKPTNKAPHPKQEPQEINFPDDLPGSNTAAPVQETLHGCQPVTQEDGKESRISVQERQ

T1 sequence (P25942 21-193 limits assumed): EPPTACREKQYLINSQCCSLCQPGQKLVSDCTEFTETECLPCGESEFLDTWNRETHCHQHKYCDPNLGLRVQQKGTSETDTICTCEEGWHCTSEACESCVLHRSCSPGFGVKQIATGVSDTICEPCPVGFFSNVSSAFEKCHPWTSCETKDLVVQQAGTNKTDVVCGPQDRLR

binding result [1]: binds
B1: TPP000161222 (Fc fusion)
chain: IAAHVISEASSKTTSVLQWAEKGYYTMSNNLVTLENGKQLTVKRQGLYYIYAQVTFCSNREASSQAPFIASLCLKSPGRFERILLRAANTHSSAKPCGQQSIHLGGVFELQPGASVFVNVTDPSQVSHGTGFTSFGLLKLEGKSSGSGSQIAAHVISEASSKTTSVLQWAEKGYYTMSNNLVTLENGKQLTVKRQGLYYIYAQVTFCSNREASSQAPFIASLCLKSPGRFERILLRAANTHSSAKPCGQQSIHLGGVFELQPGASVFVNVTDPSQVSHGTGFTSFGLLKLEGKSSGSGSQIAAHVISEASSKTTSVLQWAEKGYYTMSNNLVTLENGKQLTVKRQGLYYIYAQVTFCSNREASSQAPFIASLCLKSPGRFERILLRAANTHSSAKPCGQQSIHLGGVFELQPGASVFVNVTDPSQVSHGTGFTSFGLLKLVERKSCVECPPCPAPPVAGPSVFLFPPKPKDTLMISRTPEVTCVVVDVSHEDPEVQFNWYVDGVEVHNAKTKPREEQFNSTFRVVSVLTVVHQDWLNGKEYKCKVSNKGLPAPIEKTISKTKGQPREPQVYTLPPSREEMTKNQVSLTCLVKGFYPSDIAVEWESNGQPENNYKTTPPMLDSDGSFFLYSKLTVDKSRWQQGNVFSCSVMHEALHNHYTQKSLSLSPGK
notes: This protein had only 38.76% monomer after protein A; also called C40W33; JNJ75347415

HEK-Blue reporter assay activity, fold against TPP000161222 [2]: 100 fold | EC50 (read off the curve) [1]: ~0.09 µg/mL
B2: TPP000182983 (Fc fusion)
chain: HTCPPCPAPEAAGGPSVFLFPPKPKDTLMISRTPEVTCVVVSVSHEDPEVKFNWYVDGVEVHNAKTKPREEQYNSTYRVVSVLTVLHQDWLNGKEYKCKVSNKALPAPIEKTISKAKGQPREPQVYTLPPSREEMTKNQVSLTCLVKGFYPSDIAVEWESNGQPENNYKTTPPVLDSDGSFFLYSKLTVDKSRWQQGNVFSCSVMHEALHNHYTQKSLSLSPGGGGGSNPQIAAHVISEASSKTTSVLQWAEKGYYTMSNNLVTLENGKQLTVKRQGLYYIYAQVTFCSNREASSQAPFIASLCLKSPGRFERILLRAANTHSSAKPCGQQSIHLGGVFELQPGASVFVNVTDPSQVSHGTGFTSFGLLKLGGGSGGGSGGGSNPQIAAHVISEASSKTTSVLQWAEKGYYTMSNNLVTLENGKQLTVKRQGLYYIYAQVTFCSNREASSQAPFIASLCLKSPGRFERILLRAANTHSSAKPCGQQSIHLGGVFELQPGASVFVNVTDPSQVSHGTGFTSFGLLKLGGGSGGGSGGGSNPQIAAHVISEASSKTTSVLQWAEKGYYTMSNNLVTLENGKQLTVKRQGLYYIYAQVTFCSNREASSQAPFIASLCLKSPGRFERILLRAANTHSSAKPCGQQSIHLGGVFELQPGASVFVNVTDPSQVSHGTGFTSFGLLKL
notes: Single chain trimeric CD40L fused to the C-terminus of the Fc; also called C4LW16

Reference: patent publication US20240166720A1 (Janssen / Centocor, published 2024)
